Results published in patent publication US20250034594A1, “RNA-GUIDED GENOME RECOMBINEERING AT KILOBASE SCALE” (THE BOARD OF TRUSTEES OF THE LELAND STANFORD JUNIOR …, priority 2021, published 2025).

What was measured:
Assay type in all cases: cell-based
gene editing with dCas9 = test: Screen of 322 new SSAP proteins, gene editing activity with dCas9 (Table 5); design: dCas9 with SSAP activity: scale not given here
Method in brief: (§1)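 Sequence-mined SSAPs (n=322), synthesized; editing activity screened with Cas9 or dCas9.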

gene editing with Cas9 = test: Screen of 322 new SSAP proteins, gene editing activity with Cas9 (Table 5); design: Cas9 with SSAP activity: scale not given here
Method in brief: as §1

[1] = test system: gene editing with Cas9 and dCas9; test: Screen of 322 new SSAP proteins, activity across all experiments (Cas9 and dCas9, Table 5); design: scale not given here
Method in brief: as §1

Molecule	dCas9 with SSAP activity (gene editing with dCas9)	Cas9 with SSAP activity (gene editing with Cas9)	Activity across all experiments [1]	dCas9 with SSAP activity (normalized) (gene editing with dCas9)	Cas9 with SSAP activity (normalized) (gene editing with Cas9)
SSAP_77: SEQ ID NO: 246 (protein) TNNQLVEAKGDFLTNPQLLNSGIIRKYLDPQGKASDEELAYFIAQAKAQNLNPFTKEIYFIKYGTQPAQIVTAKSAFEKKADSHPQFDGKEAGVIYLLDGEIKYSKGAFIPKGAEILGGWAKVYRKDRTYPTETEVSFEEYDNSKIRARVKELTQQGKDVTYPVMNSYGKPIGENNWDTMPCVMIRKVALVSAYREAFPAELGASYEADEIQLDNTPKDITPQENREDVIARKMAQIEQFNKEQAHTDPEPTQTEEPIQGELLDGELEY	−10.167	−10.167	−10.167		
SSAP_178: SEQ ID NO: 347; Streptomyces sp. MZ04 (protein, listed as Streptomyces sp.) STNLAARVEARRQNPTTKQPARRGKAAQQPTLVQFVQSMRGEIARALPSHVASPERIARIALTELRRVDHLAECTQESFGGALMTCAALGLEPGGVGGEAYLLPFWNKKVRAYEVTLVIGYQGMVRLFWQHPAAAGLAAHTVHEGDEFDFEYGLEPFLRHKPARTGRGKPTDYYAVAKMANGGSAFVVMNVEDIEAIRHRSKARDAGPWSTDYGLRRHGAQDLHSAVVQVAAEVC	−0.807	−1.057	−0.932	−0.626	−0.929
SSAP_22: SEQ ID NO: 191 (protein) SNELMTKAVTYEVNNEEVKLSGQIVKQYLTSGQAVTDQEVTMFIQLCRYQHLNPFLNEAYLVKFNGKPAQIITSKEAFMKRAESNPNYAGLKAGCIVERNGELIYTEGAFTLKTDNILGAWADVIRKDRREPTHVEISMDEFSKSQATWKSMPATMIRKTAIVNALREAFPQDLGALYTEDDKNPNEATQTTYKQEPEVNTTKTADVLAKKFSGAPQIKSVENVQESEEESNNASNHGEATEPVNNVEEPTATAEVEQGQLL	−0.792	1.789	0.498	−0.867	4.337
SSAP_69: SEQ ID NO: 238 (protein) ETIDIKQELASQAQTDSKKEVKLTKAMSIAEMIKAMMPEIKRALPSMITPERFTRIALSALNNTPELQACTPMSFISALLNAAQLGLEINSPLGHAYLIPYKNKGVLECQFQIGYLGLIALAYRNELMQTIQAQCVYENDEFLYEYGLNPKLVHRPATSDRGEPVFFYGLFKMINSGFGFCVMSKQEMDEFARTYSKGLASSFSPWKTSYNEMAKKTVIKQALKYAPIKTDFQKALSTDESIKYAISEDMTEAVNEIVSQNTEVA	−0.742	−5.286	−3.014	−0.240	−0.810
SSAP_114: SEQ ID NO: 283; Methylomonas rhizoryzae (protein, listed as Methylomonas rhizoryzae) SELLSALNAPETQKPQTLPAMLKQHQPRFKAIAPRDVDVTRFSAALMADVRSNQKLAECNPMTVLGAFIRSTQLGLEPGSQLGQAYFVPFKGECQLVIGYRGMIELAYRSGKVASISARTVYENDVFEWELGTDERITHKPATGDRGALVAVYAMAKLTTGGIHFEVLDLAEIEKAKRASKSSSFGPWKDHFEEMAKKTAIRRLFKYLPVGTDLTRAVALDEKAESGSQQNDIEAETVLDGEFYPAGGGNDG	−10.925	−7.755	−9.340		−1.412
SSAP_71: SEQ ID NO: 240 (protein) SNNELLAKPVEFEVNGEAVKLTGKTVKNFLVSGNGEVSDQEVVMFINLCKYQKLNPFLNEAYLVKFKSKSGPDKPAQVIVSKEAFMKRAEKHPNYEGFEAGIIVERDGQLVDIEGAIKLTNDKLVGGWARVYRSDRQKPITTRISLSEFSKGQSTWNSMPLTMIRKSAIVNAQREAFPETLGALYTEDDAKLDTTSSHDQEQVIEQEIKTKANQEVIDVEYTEESEQKSPQQEQTETTQAGPGF	−0.701	−1.797	−1.249	−0.555	−2.283
SSAP_91: SEQ ID NO: 260; Proteus mirabilis (protein, listed as Proteus mirabilis) SNPPLAQADLQKTQGTEVKTKTKDQQLIHFINQPSMKTQLAAALPRHMTPDRMIRIVTTEIRKTPALANCDMQSFIGAVVQCSQLGLEPGNALGHAYLLPFGNGKAKSGQSNVQLIIGYRGMIDLARRSNQIISISARTVRQGDSFHFEYGLNENLTHVPGENEDSPITHVYAVARLKDGGVQFEVMTHNQIEKVRASSKAGQNGPWVSHWEEMAKKTVIRRLFKYLPVSIEMQKAVILDEKAEANVDQENASVFEGEFEEVGSNGN	−0.407	0.635	0.114	−0.170	0.826
SSAP_316: SEQ ID NO: 485; Companilactobacillus kedongensis (protein, listed as Companilactobacillus kedongensis) MKDLARIPVKELVRSDTIKSKFNDVLGKRAPQFISSIVNIVNSNQDLKNVDQTSVISSALVAASLDLPINQSFGYMYLVPYSGKAQPQMGYKGYIQLAQRSGQYKRLNAISVSKEKVPDKMVIFIPDYRMEEAETQIDMYQDHIEDVKAGRVEPTRCGKCDYCKSTAKLGKIVSMDDLID	−0.764	0.465	−0.150	−0.279	0.410
SSAP_11: SEQ ID NO: 180; Bet Lactococcus phage phiLC3 (protein, listed as Lactococcus lactis) ANEIDIYDAKNLNTATVKKFLKGGGQASDEELAMLLAISRNQNMNPFMKEVYFIKYGSAAAQIVVSRDFYRKRAFQNPNFAGIEVGVIVLNKDGVLEHNEGTFKTKDQELVGAWARVHLKNTEIPVYVAVSYDEYVQMKNGQPNSMWTNKPCTMLGKVAESQALRMAFPAEFSGTYGEEEYPEPEKEPREVNGVKEPDRAQIESFDKENYAARKIEELKEKAQPQKEFVEEIGEAIDEITAEDF	−0.655	−1.791	−1.223	−0.866	−0.870
SSAP_233: SEQ ID NO: 402; Actinoplanes italicus (protein, listed as Actinoplanes italicus) PETIANAVAQRDQSPTALVADYRNDFAAVLPSHLPPATFVRLAQGVLRRDQNLMRTAMNNPGSLMTAMLDCARLGHEPGTPAYYFVPIKGAIEGWEGYRGVIERIYRAGAVQSVRAEVVRENDFYEYEEGMPHPIHRYERFASPEQRGPLLGVWAYAVMLDGGMSRPVEMGREEVLAHRDMNPSNNRSDSPWKKWERSMWLKCAVHELEKWVPSSTEYRREIARMSAPQPAAAAAPVTYVPPQVGQRDAIEGEVAEDWPEPAEVPGGAQ	−0.220	−2.628	−1.424	−0.063	−0.424
SSAP_66: SEQ ID NO: 235 (protein) TNQLAHKDFFNTPAVKQKFQEVLNGNERQFTASLLSIVNNNKLLARASNTSIMTAAMKAAVLNLPIEPSLGFAYIVPYGQDAQFQLGYKGLIQLAIRSGQFKAINSGKVYKAQFKSYDPLFETLDIDFTQPEDEVYGYFATFELVNGFKKLTFWTKEQAESHGKRFSKTYAKGPWSTDFDAMAQKTVLKSILSKYAPLSTEMQEGLISDNQTEEVETDPIDVTPKNEDTQTLLSDLMSDEAESETEKV	−0.205	0.370	0.082	−0.040	0.407
SSAP_187: SEQ ID NO: 356; Staphylococcus warneri (protein, listed as Staphylococcus warneri) ATQNDFKNQITDKKENKPQQSTNPRQVASDLLERMKPEIAKALPAHMSQDRMTRIALSAVNSNPKLSEVILNNPTSFLGALMQSAQLGLEPNTNLGHAYLIPYGNIVQLQLGYLGLLELAYRSGKYQKIMAMPVYKDDFFEYQYGTDEKLNHIPAQQQTGDAVGYYAFYKLTNGGTHFVYWSRQKMNMHQQQYSKGGNVWRNNFDAMALKTVIKDVLKYAPKSIEMGEAVTSDNNNFDFKDGGDIIDVTDYETEEN	−0.498	0.257	−0.120	−0.164	0.239
SSAP_279: SEQ ID NO: 448; Dorea sp. 42_8 (protein, listed as Dorea sp.) AVNNSLAKRDQSMKLSVYLQNDAVKKQINQVVGGKNGTRFISSIVSAVQSTPALQECTSPSIVNAALLGEALNLSPSPQLGQFYMVPFDNRKKGCKEAQFQLGYKGYIQLAERSGYYKKLNVLAIKEGELIRYDPLDEEIEVELIDDDVIREETPAMGYYAMFEYENGFCIQQKWRSEDFGTFRAGQNSGKGSLEVFFFLVQRF	−10.362	−2.825	−6.593	−2.349	−3.398
SSAP_102: SEQ ID NO: 271; Halomonas coralii (protein, listed as Halomonas coralii) TDQATAEPQEDLGKQLQQHSQRKPMPTTIQGMLKDDRFTGQIARALPKHITPDRISRIALTEVNKTPALGKCDPMSLFGSIIQSAQLGLELGGALGHAYLVPYKDQAQFIIGYRGMIDLARRSGQMVSLQAHTVHENDDFEFEYGLDEKLRHVPARGQRGPMIAVYAVAKLTGGGHQIEVMWKEDVDAIRQQSKAGNSGPWRDHYEEMAKKTAIRRLFKYLPVSVEMQKAVSLDEQAEAGVQDNNVFDGEFSYQEPE	−0.784	−0.118	−0.451	−0.325	−0.065
